# Target: CH1 domain of the murine IgG1 heavy chain, oxidized (internal disulfide bridge formed) (murine) [IgG part: P01868]
# Experiment: other fluorescence titration
substance,measurement,value
CL domain of the murine MAK33 κ light chain (from UniProt P01837 1-107) (domain or fragment),Kd,6.2 µM

# Reference: article PMC2908990
